Key:
HeLa Kyoto [1] = experiment: solubility in G1/S (NP-40 vs SDS abundance) (log2 ratio); higher = more soluble; conditions: cell cycle stage: G1/S
HeLa Kyoto [2] = experiment: melting temperature (median over replicates), in situ; higher = more thermally stable
HeLa Kyoto [3] = experiment: solubility change mitosis vs G1/S (difference of NP-40 vs SDS log2 ratios) (log2 ratio difference); higher = more soluble in mitosis
HeLa Kyoto [4] = experiment: thermal stability score vs G1/S (z-score of summed log2 fold changes over temperatures); higher = more thermally stable than in G1/S
[5] = cell cycle stage: early G1 (4.5 h after nocodazole release)
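For melting temperature (median over replicates), in situ in this document: HeLa Kyoto cells synchronized by double thymidine or nocodazole block, proteins quantified by TMT10plex mass spectrometry, three independent biological replicates.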
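For solubility change mitosis vs G1/S (difference of NP-40 vs SDS log2 ratios) in this document: synchronized HeLa Kyoto cells (double thymidine block for G1/S, nocodazole release for mitosis), protein amounts in NP-40 versus SDS lysates quantified by mass spectrometry, three biological replicates.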
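For solubility in G1/S (NP-40 vs SDS abundance) in this document: HeLa Kyoto cells arrested at G1/S by double thymidine block, proteins quantified by TMT10plex mass spectrometry in mild NP-40 versus SDS extracts, three biological replicates.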
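For thermal stability score vs G1/S (z-score of summed log2 fold changes over temperatures) in this document: synchronized HeLa Kyoto cells, proteins quantified by TMT10plex mass spectrometry, three biological replicates, mitosis taken 0.5 h after nocodazole release, G1/S directly after double thymidine block.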

Sequence | solubility in G1/S (log2) (HeLa Kyoto [1]) | melting temperature (HeLa Kyoto [2]; cell cycle stage: G1/S) [°C] | melting temperature (HeLa Kyoto [2]; cell cycle stage: mitosis) [°C] | solubility change mitosis (log2) (HeLa Kyoto [3]) | thermal stability score (HeLa Kyoto [4]; [5]) | thermal stability score (HeLa Kyoto [4]; cell cycle stage: mitosis)
MGRRRAPAGGSLGRALMRHQTQRSRSHRHTDSWLHTSELNDGYDWGRLNLQSVTEQSSLDDFLATAELAGTEFVAEKLNIKFVPAEARTGLLSFEESQRIKKLHEENKQFLCIPRRPNWNQNTTPEELKQAEKDNFLEWRRQLVRLEEEQKLILTPFERNLDFWRQLWRVIERSDIVVQIVDARNPLLFRCEDLECYVKEMDANKENVILINKADLLTAEQRSAWAMYFEKEDVKVIFWSALAGAIPLNGDSEEEANRDDRQSNTTKFGHSSFDQAEISHSESEHLPARDSPSLSENPTTDEDDSEYEDCPEEEEDDWQTCSEEDGPKEEDCSQDWKESSTADSEARSRKTPQKRQIHNFSHLVSKQELLELFKELHTGRKVKDGQLTVGLVGYPNVGKSSTINTIMGNKKVSVSATPGHTKHFQTLYVEPGLCLCDCPGLVMPSFVSTKAEMTCSGILPIDQMRDHVPPVSLVCQNIPRHVLEATYGINIITPREDEDPHRPPTSEELLTAYGYMRGFMTAHGQPDQPRSARYILKDYVSGKLLYCHPPPGRDPVTFQHQHQRLLENKMNSDEIKMQLGRNKKAKQIENIVDKTFFHQENVRALTKGVQAVMGYKPGSGVVTASTASSENGAGKPWKKHGNRNKKEKSRRLYKHLDM [LSG1] | -0.366 | 49 | 49 | 0.0936 | 0.926 | 1.89
MAAHLVKRCTCLLREAARQAPAMAPVGRLRLAWVAHKTLTSSATSPISHLPGSLMEPVEKERASTPYIEKQVDHLIKKATRPEELLELLGGSHDLDSNQAAMVLIRLSHLLSEKPEDKGLLIQDAHFHQLLCLLNSQIASVWHGTLSKLLGSLYALGIPKASKELQSVEQEVRWRMRKLKYKHLAFLAESCATLSQEQHSQELLAELLTHLERRWTEIEDSHTLVTVMMKVGHLSEPLMNRLEDKCLELVEHFGPNELRKVLVMLAAQSRRSVPLLRAISYHLVQKPFSLTKDVLLDVAYAYGKLSFHQTQVSQRLATDLLSLMPSLTSGEVAHCAKSFALLKWLSLPLFEAFAQHVLNRAQDITLPHLCSVLLAFARLNFHPDQEDQFFSLVHEKLGSELPGLEPALQVDLVWALCVLQQAREAELQAVLHPEFHIQFLGGKSQKDQNTFQKLLHINATALLEYPEYSGPLLPASAVAPGPSALDRKVTPLQKELQETLKGLLGSADKGSLEVATQYGWVLDAEVLLDSDGEFLPVRDFVAPHLAQPTGSQSPPPGSKRLAFLRWEFPNFNSRSKDLLGRFVLARRHIVAAGFLIVDVPFYEWLELKSEWQKGAYLKDKMRKAVAEELAK [TBRG4] | 0.123 | 48.4 | 48.2 | -0.127 | 0.141 | 3.9
MYTLLSGLYKYMFQKDEYCILILGLDNAGKTTFLEQSKTRFNKNYKGMSLSKITTTVGLNIGTVDVGKARLMFWDLGGQEELQSLWDKYYAECHGVIYVIDSTDEERLAESKQAFEKVVTSEALCGVPVLVLANKQDVETCLSIPDIKTAFSDCTSKIGRRDCLTQACSALTGKGVREGIEWMVKCVVRNVHRPPRQRDIT [ARFRP1] | 0.0143 |  | 52.8 | -0.0831 | 0.162 | -0.992
MGLLRGGLPCARAMARLGAVRSHYCALLLAAALAVCAFYYLGSGRETFSSATKRLKEARAGAPAAPSPPALELARGSVAPAPGAKAKSLEGGGAGPVDYHLLMMFTKAEHNAALQAKARVALRSLLRLAKFEAHEVLNLHFVSEEASREVAKGLLRELLPPAAGFKCKVIFHDVAVLTDKLFPIVEAMQKHFSAGLGTYYSDSIFFLSVAMHQIMPKEILQIIQLDLDLKFKTNIRELFEEFDSFLPGAIIGIAREMQPVYRHTFWQFRHENPQTRVGGPPPEGLPGFNSGVMLLNLEAMRQSPLYSRLLEPAQVQQLADKYHFRGHLGDQDFFTMIGMEHPKLFHVLDCTWNRQLCTWWRDHGYSDVFEAYFRCEGHVKIYHGNCNTPIPED [XXYLT1] | -0.0927 | 54.9 | 54.7 | -0.0858 | -1.07 | -1.02
MGTPKPRILPWLVSQLDLGQLEGVAWVNKSRTRFRIPWKHGLRQDAQQEDFGIFQAWAEATGAYVPGRDKPDLPTWKRNFRSALNRKEGLRLAEDRSKDPHDPHKIYEFVNSGVGDFSQPDTSPDTNGGGSTSDTQEDILDELLGNMVLAPLPDPGPPSLAVAPEPCPQPLRSPSLDNPTPFPNLGPSENPLKRLLVPGEEWEFEVTAFYRGRQVFQQTISCPEGLRLVGSEVGDRTLPGWPVTLPDPGMSLTDRGVMSYVRHVLSCLGGGLALWRAGQWLWAQRLGHCHTYWAVSEELLPNSGHGPDGEVPKDKEGGVFDLGPFIVDLITFTEGSGRSPRYALWFCVGESWPQDQPWTKRLVMVKVVPTCLRALVEMARVGGASSLENTVDLHISNSHPLSLTSDQYKAYLQDLVEGMDFQGPGES [IRF3] | -0.0358 | 51.4 | 51.7 | 0.174 | 0.111 | 1.23
MDLGPLNICEEMTILHGGFLLAEQLFHPKALAELTKSDWERVGRPIVEALREISSAAAHSQPFAWKKKALIIIWAKVLQPHPVTPSDTETRWQEDLFFSVGNMIPTINHTILFELLKSLEASGLFIQLLMALPTTICHAELERFLEHVTVDTSAEDVAFFLDVWWEVMKHKGHPQDPLLSQFSAMAHKYLPALDEFPHPPKRLRSDPDACPTMPLLAMLLRGLTQIQSRILGPGRKCCALANLADMLTVFALTEDDPQEVSATVYLDKLATVISVWNSDTQNPYHQQALAEKVKEAERDVSLTSLAKLPSETIFVGCEFLHHLLREWGEELQAVLRSSQGTSYDSYRLCDSLTSFSQNATLYLNRTSLSKEDRQVVSELAECVRDFLRKTSTVLKNRALEDITASIAMAVIQQKMDRHMEVCYIFASEKKWAFSDEWVACLGSNRALFRQPDLVLRLLETVIDVSTADRAIPESQIRQVIHLILECYADLSLPGKNKVLAGILRSWGRKGLSEKLLAYVEGFQEDLNTTFNQLTQSASEQGLAKAVASVARLVIVHPEVTVKKMCSLAVVNLGTHKFLAQILTAFPALRFVEEQGPNSSATFMVSCLKETVWMKFSTPKEEKQFLELLNCLMSPVKPQGIPVAALLEPDEVLKEFVLPFLRLDVEEVDLSLRIFIQTLEANACREEYWLQTCSPFPLLFSLCQLLDRFSKYWQLPKEKRCLSLDRKDLAIHILELLCEIVSANAETFSPDVWIKSLSWLHRKLEQLDWTVGLRLKSFFEGHFKCEVPATLFEICKLSEDEWTSQAHPGYGAGTGLLAWMECCCVSSGISERMLSLLVVDVGNPEEVRLFSKGFLVALVQVMPWCSPQEWQRLHQLTRRLLEKQLLHVPYSLEYIQFVPLLNLKPFAQELQLSVLFLRTFQFLCSHSCRDWLPLEGWNHVVKLLCGSLTRLLDSVRAIQAAGPWVQGPEQDLTQEALFVYTQVFCHALHIMAMLHPEVCEPLYVLALETLTCYETLSKTNPSVSSLLQRAHEQRFLKSIAEGIGPEERRQTLLQKMSSF [GEMIN4] | -0.428 | 47 | 49.3 | -0.14 | 0.771 | 3.29
MGTARWLALGSLFALAGLLEGRLVGEEEAGFGECDKFFYAGTPPAGLAADSHVKICQRAEGAERFATLYSTRDRIPVYSAFRAPRPAPGGAEQRWLVEPQIDDPNSNLEEAINEAEAITSVNSLGSKQALNTDYLDSDYQRGQLYPFSLSSDVQVATFTLTNSAPMTQSFQERWYVNLHSLMDRALTPQCGSGEDLYILTGTVPSDYRVKDKVAVPEFVWLAACCAVPGGGWAMGFVKHTRDSDIIEDVMVKDLQKLLPFNPQLFQNNCGETEQDTEKMKKILEVVNQIQDEERMVQSQKSSSPLSSTRSKRSTLLPPEASEGSSSFLGKLMGFIATPFIKLFQLIYYLVVAILKNIVYFLWCVTKQVINGIESCLYRLGSATISYFMAIGEELVSIPWKVLKVVAKVIRALLRILCCLLKAICRVLSIPVRVLVDVATFPVYTMGAIPIVCKDIALGLGGTVSLLFDTAFGTLGGLFQVVFSVCKRIGYKVTFDNSGEL [ENDOD1] | -0.0976 | 57.6 | 56.6 | -0.0882 | 1.24 | -2.33
MPKFKAARGVGGQEKHAPLADQILAGNAVRAGVREKRRGRGTGEAEEEYVGPRLSRRILQQARQQQEELEAEHGTGDKPAAPRERTTRLGPRMPQDGSDDEDEEWPTLEKAATMTAAGHHAEVVVDPEDERAIEMFMNKNPPARRTLADIIMEKLTEKQTEVETVMSEVSGFPMPQLDPRVLEVYRGVREVLSKYRSGKLPKAFKIIPALSNWEQILYVTEPEAWTAAAMYQATRIFASNLKERMAQRFYNLVLLPRVRDDVAEYKRLNFHLYMALKKALFKPGAWFKGILIPLCESGTCTLREAIIVGSIITKCSIPVLHSSAAMLKIAEMEYSGANSIFLRLLLDKKYALPYRVLDALVFHFLGFRTEKRELPVLWHQCLLTLVQRYKADLATDQKEALLELLRLQPHPQLSPEIRRELQSAVPRDVEDVPITVE [BYSL] | -0.343 | 48.3 | 49 | 0.115 | 1.85 | 5.44
MAEPVGKRGRWSGGSGAGRGGRGGWGGRGRRPRAQRSPSRGTLDVVSVDLVTDSDEEILEVATARGAADEVEVEPPEPPGPVASRDNSNSDSEGEDRRPAGPPREPVRRRRRLVLDPGEAPLVPVYSGKVKSSLRLIPDDLSLLKLYPPGDEEEAELADSSGLYHEGSPSPGSPWKTKLRTKDKEEKKKTEFLDLDNSPLSPPSPRTKSRTHTRALKKLSEVNKRLQDLRSCLSPKPPQGQEQQGQEDEVVLVEGPTLPETPRLFPLKIRCRADLVRLPLRMSEPLQSVVDHMATHLGVSPSRILLLFGETELSPTATPRTLKLGVADIIDCVVLTSSPEATETSQQLQLRVQGKEKHQTLEVSLSRDSPLKTLMSHYEEAMGLSGRKLSFFFDGTKLSGRELPADLGMESGDLIEVWG [NFATC2IP] | 0.318 | 48.7 | 51.5 | -0.0384 | 2.45 | 4.3
MPKVKRSRKAPPDGWELIEPTLDELDQKMREAETEPHEGKRKVESLWPIFRIHHQKTRYIFDLFYKRKAISRELYEYCIKEGYADKNLIAKWKKQGYENLCCLRCIQTRDTNFGTNCICRVPKSKLEVGRIIECTHCGCRGCSG [BUD31] | -0.0954 | 51.1 | 50.9 | 0.184 | 1.19 | 0.411
MGAFLDKPKMEKHNAQGQGNGLRYGLSSMQGWRVEMEDAHTAVIGLPSGLESWSFFAVYDGHAGSQVAKYCCEHLLDHITNNQDFKGSAGAPSVENVKNGIRTGFLEIDEHMRVMSEKKHGADRSGSTAVGVLISPQHTYFINCGDSRGLLCRNRKVHFFTQDHKPSNPLEKERIQNAGGSVMIQRVNGSLAVSRALGDFDYKCVHGKGPTEQLVSPEPEVHDIERSEEDDQFIILACDGIWDVMGNEELCDFVRSRLEVTDDLEKVCNEVVDTCLYKGSRDNMSVILICFPNAPKVSPEAVKKEAELDKYLECRVEEIIKKQGEGVPDLVHVMRTLASENIPSLPPGGELASKRNVIEAVYNRLNPYKNDDTDSTSTDDMW [PPM1A] | 0.243 | 51.9 | 52 | -0.159 | 0.1 | -0.132
MPQYQTWEEFSRAAEKLYLADPMKARVVLKYRHSDGNLCVKVTDDLVCLVYKTDQAQDVKKIEKFHSQLMRLMVAKEARNVTMETE [SRP9] | -0.607 | 53.5 | 52.1 | 0.394 | -2.84 | -5.71
